Experimental findings from the RNAGym collection of RNA variant scans (doi:10.7554/elife.80360) are described below.

The labels stand for the following.
B1: HDV Ribozyme (parent)
chain: GGCCGGCAUGGUCCCAGCCUCCUCGCUGGCGCCGGCUGGGCAACAUUCCGAGGGGACCGUCCCCUCGGUAAUGGCGAAUGGGACCCA

In this data set the parent is B1. The experiment in a line: self-cleavage, relative activity (ratio to wild type); higher = more cleavage; co-transcriptional.
For C13G C61A, the self-cleavage was determined as 0.148.
To C13U C63G belongs 0.233; to C13U C63U, 0.696.
To C13G A16U belongs 0.19.
On to C13G A16G, for which the self-cleavage was determined as 0.0831.
Consider C13G A43G, for which the self-cleavage was determined as 0.133.
As for C13G C63A, the self-cleavage came to 0.0906.
As for C13U G82C, the figure is 0.277; as for C13U G82U, 0.359.
To C14A C86A belongs 0.886; to C13U C61G, 0.684; to C13G C75U, 0.0594.
In the case of C13G C75A, the self-cleavage is 0.
For C13G C75G, the self-cleavage is 0.128.
Consider C13U G53U, for which the self-cleavage came out at 0.671.
To C14A C33U belongs 0.587.
Consider C14A C33A, for which the self-cleavage was found to be 0.0959.
In the case of C14A C33G, the self-cleavage turned out to be 0.213.
For the variant C13U U69A, the self-cleavage is 0.8.
C13U U69G: the self-cleavage was determined as 0.7.
As for C14A A42C, the figure is 0.0369; as for C14A A42G, 0.277.
As for C14A G52U, the figure is 1.03; as for C14A G52A, 0.567; as for C13U G38U, 0.149.
To C13U G38A belongs 0.138; to C13G U72C, 0.0723.
For C13G G53A, the self-cleavage is 0.163.
For C13G G53U, the self-cleavage is 0.102.
Take C14A G25A: the self-cleavage came out at 0.141.
As for C14A G28A, the self-cleavage turned out to be 0.141.
To C14A G28U belongs 0.0733; to C14A U69G, 0.665.
On to C13U G54A, for which the self-cleavage was 0.739.
As to C13U A83C, the self-cleavage amounted to 0.344.
Turning to C14A C22U, the self-cleavage is 0.181.
Turning to C13U U72A, the self-cleavage turned out to be 0.128.
For C13U U72C, the self-cleavage amounted to 0.252.
Regarding C13U U72G, the self-cleavage was found to be 0.266.
Turning to C13U G25U, the self-cleavage was found to be 0.
Take C13U G25C: the self-cleavage was found to be 0.0723.
For the variant C13U A77U, the self-cleavage is 0.155.
As to C13U A77G, the self-cleavage was 0.399.
For the variant C13U A43G, the self-cleavage was 0.525.
For the variant C13G C18A, the self-cleavage was found to be 0.0831.
With C13U U47G, the self-cleavage was determined as 0.95.
As to C13U U47C, the self-cleavage turned out to be 0.489.
For C13U C22U, the self-cleavage was found to be 0.193.
As for C13U U46A, the self-cleavage stood at 0.219.
Regarding C13U U46C, the self-cleavage amounted to 0.138.
For the variant C13G C26U, the self-cleavage is 0.208.
Turning to C13G G50C, the self-cleavage worked out at 0.0594.
To C13G G50A belongs 0.131.
Regarding C13U G40A, the self-cleavage is 0.365.
For the variant C14A G80U, the self-cleavage is 0.273.
As for C14A G80A, the self-cleavage was 0.565.
Turning to C14A C48U, the self-cleavage was 0.791.
In the case of C13G C86G, the self-cleavage came out at 0.0978.
As for C13G C86A, the figure is 0.0811; as for C13G U69C, 0.111.
On to C13G G67C, for which the self-cleavage was found to be 0.0665.
As for C14A C19G, the self-cleavage stood at 0.
C14A C19U: the self-cleavage was 0.182.
On to C14A A45U, for which the self-cleavage was 0.467.
To C13G U37G belongs 0.
Consider C13U U37C, for which the self-cleavage came out at 0.369.
To C13U U37G belongs 0.138; to C13U U37A, 0.0308.
With C14A G68C, the self-cleavage is 0.388.
On to C14A G68U, for which the self-cleavage came to 0.462.
Turning to C13G A77G, the self-cleavage was 0.199.
On to C13G A77C, for which the self-cleavage is 0.0615.
Turning to C14A G76A, the self-cleavage came out at 0.718.
Regarding C14A G76C, the self-cleavage turned out to be 0.969.
Take C13U A71U: the self-cleavage worked out at 0.494.
With C13U A71G, the self-cleavage came to 0.429.
On to C13G U20G, for which the self-cleavage came to 0.
Take C13G U20A: the self-cleavage was found to be 0.
Turning to C13G U20C, the self-cleavage stood at 0.158.
For the variant C13U C62A, the self-cleavage came out at 0.489.
For the variant C13U C62U, the self-cleavage was determined as 0.589.
Take C13G C33U: the self-cleavage was determined as 0.0475.
Take C13U C14U: the self-cleavage stood at 0.308.
As to C14A G59C, the self-cleavage amounted to 0.739.
Consider C14A G59U, for which the self-cleavage came to 1.05.
Regarding C13G G81C, the self-cleavage came to 0.229.
Take C13G G81A: the self-cleavage came out at 0.0426.
With C13G G81U, the self-cleavage was found to be 0.0475.
As to C14A C36G, the self-cleavage worked out at 0.107.
For the variant C13G C32A, the self-cleavage was 0.0875.
To C13G C32U belongs 0.0437; to C14A C21A, 0.0652; to C14A C21G, 0.141.
To C13G A83U belongs 0; to C13G A83G, 0.0361.
As for C13U G50A, the figure is 0.439; as for C14A C32A, 0.148; as for C14A C32U, 0.458.
In the case of C13G G25C, the self-cleavage amounted to 0.0875.
As for C13U G55A, the figure is 0.702; as for C13U U20C, 0.0978.
With C13U U20G, the self-cleavage came to 0.135.
As for C14A C61U, the figure is 0.656; as for C14A A16C, 0.755; as for C13U A42G, 0.0755.
Regarding C14A A87G, the self-cleavage was 0.659.
For the variant C13G C58U, the self-cleavage worked out at 0.0898.
As for C13G C58G, the self-cleavage was 0.119.
As for C13U G74C, the figure is 0.0627.
Consider C13U G28A, for which the self-cleavage turned out to be 0.128.
As for C13U G73A, the self-cleavage came out at 0.128.
C13U G73U: the self-cleavage is 0.0875.
C13G G35A: the self-cleavage stood at 0.0449.
For C13G G35C, the self-cleavage came to 0.0536.
For C13G G35U, the self-cleavage stood at 0.0504.
With C13U A56G, the self-cleavage was found to be 0.573.
Regarding C13U A56U, the self-cleavage stood at 0.554.
As to C13U U23A, the self-cleavage was 0.571.
As for C13G G68A, the self-cleavage worked out at 0.
Regarding C14A C64G, the self-cleavage was determined as 0.892.
For C13U C21G, the self-cleavage stood at 0.115.
For C13U C21A, the self-cleavage turned out to be 0.192.
Turning to C14A A70G, the self-cleavage came to 0.665.
To C14A A70U belongs 0.344; to C13U A45G, 0.465; to C13U A16G, 0.978.
To C13U G29U belongs 0.0707.
On to C13G A45G, for which the self-cleavage amounted to 0.138.
As for C13G G17U, the figure is 0.0426; as for C13U G67A, 0.572.
Turning to C13U G67C, the self-cleavage amounted to 0.374.
For C13U U79A, the self-cleavage is 0.256.
Regarding C13G G31C, the self-cleavage was found to be 0.
Take C13G G31A: the self-cleavage amounted to 0.0923.
Regarding C13U G34C, the self-cleavage was found to be 0.0898.
To C13U G34U belongs 0.0268; to C14A G17A, 0.
C13G C84A: the self-cleavage was determined as 0.
As for C13G C84G, the figure is 0.0978.
As for C14A C15A, the figure is 0.582.
In the case of C14A C15G, the self-cleavage turned out to be 0.138.
In the case of C14A U27C, the self-cleavage was found to be 0.554.
With C13U C19G, the self-cleavage came out at 0.138.
C13G A42G: the self-cleavage was found to be 0.178.
As for C13G A42C, the self-cleavage turned out to be 0.
Consider C13G C62G, for which the self-cleavage amounted to 0.158.
As for C13G C66A, the figure is 0.0339; as for C14A C58U, 0.705.
For the variant C13G U27A, the self-cleavage worked out at 0.391.
Regarding C13G U27G, the self-cleavage was determined as 0.396.
As for C13U C18A, the figure is 0.0652.
C13G G34C: the self-cleavage amounted to 0.178.
With C13G G34A, the self-cleavage turned out to be 0.0536.
To C14A C49G belongs 0.101; to C14A C49U, 0.7; to C13G A71C, 0.
Regarding C13G A51U, the self-cleavage stood at 0.
With C13G A51G, the self-cleavage was found to be 0.123.
In the case of C14A G38U, the self-cleavage was determined as 0.182.
Consider C14A G38C, for which the self-cleavage was 0.141.
To C14A G38A belongs 0; to C13G C64A, 0.0396.
Turning to C13G C64U, the self-cleavage stood at 0.0268.
Turning to C13U C41U, the self-cleavage is 0.323.
For C13U C41A, the self-cleavage was 0.522.
In the case of C13U C41G, the self-cleavage turned out to be 0.739.
As to C14A A83U, the self-cleavage is 0.499.
